# Measurements as given in patent publication JP2016028048A (dated 2016).
# Substitutions are numbered along the chain they refer to.
# T1: ヒト組織因子経路インヒビター (human TFPI) (human, UniProt P10646 29-304, limits assumed)
# T1 construct: Coated on Maxisorp plates (ELISA) or amine-coupled to a CM5 chip (Biacore); also called ヒトTFPI; hTFPI
# T1 sequence (looked up): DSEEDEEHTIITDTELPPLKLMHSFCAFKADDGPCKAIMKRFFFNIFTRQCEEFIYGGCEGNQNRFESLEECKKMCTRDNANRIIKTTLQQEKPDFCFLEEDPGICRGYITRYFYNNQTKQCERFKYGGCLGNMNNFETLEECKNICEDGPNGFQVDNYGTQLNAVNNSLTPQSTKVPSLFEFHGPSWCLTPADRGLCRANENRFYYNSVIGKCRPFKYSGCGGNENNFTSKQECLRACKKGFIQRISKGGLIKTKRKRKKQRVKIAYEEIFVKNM
# B1: TP-3D3 (Fab, V domains shown)
# VH: QVQLVESGGGLVQPGGSLRLSCAASGFTFSSYASWVRQAPGKGLEWVSGISGDGSNTHYADSVKGRFTISRDNSKNTLYLQMNSLRAEDTAVYYCARYDNFYFDVWGQGTLVTVSS
# VL: DIELTQPPSVSVAPGQTARISCSGDSLGSKFAHWYQQKPGQAPVLVIYDDSNRPSGIPERFSGSNSGNTATLTISGTQAEDEADYYCSTYTSRSHSYVFGGGTKLTVLG
# notes: Human Fab (HuCal Gold), made in E. coli TG1
# B2: TP-2B8 (Fab, V domains shown)
# VH: QVQLVQSGAEVKKPGASVKVSCKASGYTFTGNSMHWVRQAPGQGLEWMGTIFPYDGTTKYAQKFQGRVTMTRDTSISTAYMELSSLRSEDTAVYYCARGVHSYFDYWGQGTLVTVSS
# VL: DIELTQPPSVSVAPGQTARISCSGDNLRGYYASWYQQKPGQAPVLVIYEDNNRPSGIPERFSGSNSGNTATLTISGTQAEDEADYYCQSWDSPYVHVFGGGTKLTVLG
# notes: as for B1
# B3: TP-2B3 (Fab, V domains shown)
# VH: QVQLQQSGPGLVKPSQTLSLTCAISGDSVSSNSAAWGWIRQSPGRGLEWLGMIYYRSKWYNSYAVSVKSRITINPDTSKNQFSLQLNSVTPEDTAVYYCARTMSKYGGPGMDVWGQGTLVTVSS
# VL: DIVLTQSPATLSLSPGERATLSCRASQNIGSNYLAWYQQKPGQAPRLLIYGASTRATGVPARFNGSGSGTDFTLTISSLEPEDFAVYYCQQLNSIPVTFGQGTKVEIKR
# notes: as for B1
# B4: TP-2B1 (Fab, V domains shown)
# VH: QVQLVESGGGLVQPGGSLRLSCAASGFTFSSYSMSWVRQASGKGLEWVSSIKGSGSNTYYADSVKGRFTISRDNSKNTLYLQMNSLRAEDTAVYYCARNGGLIDVWGQGTLVTVSS
# VL: DIELTQPPSVSVAPGQTARISCSGDNLGNKYAHWYQQKPGQAPVLVIYYDNKRPSGIPERFSGSNSGNTATLTISGTQAEDEADYYCQSWTPGSNTMVFGGGTRLTVLG
# notes: as for B1
# B5: TP-4B7 (Fab, V domains shown)
# VH: QVQLQQSGPGLVKPSQTLSLTCAISGDSVSSNSAAWSWIRQSPGRGLEWLGIIYKRSKWYNDYAVSVKSRITINPDTSKNQFSLQLNSVTPEDTAVYYCARWHSDKHWGFDYWGQGTLVTVSS
# VL: DIVMTQSPLSLPVTPGEPASISCRSSQSLVFSDGNTYLNWYLQKPGQSPQLLIYKGSNRASGVPDRFSGSGSGTDFTLKISRVEAEDVGVYYCQQYDSYPLTFGQGTKVEIKR
# notes: as for B1
# B6: TP-3F1 (Fab, V domains shown)
# VH: QVQLVQSGAEVKKPGESLKISCKGSGYSFTDYWIGWVRQMPGKGLEWMGIIQPSDSDTNYSPSFQGQVTISADKSISTAYLQWSSLKASDTAMYYCARFMWWGKYDSGFDVWGQGTLVTVSS
# VL: DIELTQPPSVSVAPGQTARISCSGDNIGSYFASWYQQKPGQAPVLVIYDDSNRPSGIPERFSGSNSGNTATLTISGTQAEDEADYYCEGSNVFGGGTKLTVLG
# notes: as for B1
# B7: TP-3C2 (Fab, V domains shown)
# VH: QVQLQQSGPGLVKPSQTLSLTCAISGDSVSSSSAAWSWIRQSPGRGLEWLGMIYYRSKWYNHYAVSVKSRITINPDTSKNQFSLQLNSVTPEDTAVYYCARGGSGVMDVWGQGTLVTVSS
# VL: DIQMTQSPSSLSASVGDRVTITCRASQSITNYLNWYQQKPGKAPKLLIYDVSNLQSGVPSRFSGSGSGTDFTLTISSLQPEDFAVYYCQQYSGYPLTFGQGTKVEIKR
# notes: as for B1
# B8: TP-3G3 (Fab, V domains shown)
# VH: QVQLVESGGGLVQPGGSLRLSCAASGFTFSSYSMSWVRQAPGKGLEWVSSISSSSSNTYYGDSVKGRFTISRDNSKNTLYLQMNSLRAEDTAVYYCARMHYKGMDIWGQGTLVTVSS
# VL: B7 VL with S28N, T30H, N31S, Y32H, V51A, N53S, S92Y, G93D
# notes: as for B1
# B9: TP-3C3 (Fab, V domains shown)
# VH: B5 VH with S37G, I52V, K55Y, W102A, H103R, S104A, D105K, H107S, W108G
# VL: B7 VL with T30N, N31P, D50A, V51A, Y91L, S92D, G93N, Y94R, P95S, L96I
# notes: as for B1
# B10: TP-3B3 (Fab, V domains shown)
# VH: QVQLVESGGGLVQPGGSLRLSCAASGFTFSSYGMHWVRQAPGKGLEWVSNISYMGSNTNYADSVKGRFTISRDNSKNTLYLQMNSLRAEDTAVYYCARGLFPGYFDYWGQGTLVTVSS
# VL: DIELTQPASVSVAPGQTARISCSGDNLRSKYAHWYQQKPGQAPVLVIYGDNNRPSGIPERFSGSNSGNTATLTISGTQAEDEADYYCSAYAMGSSPVFGGGTKLTVLG
# notes: as for B1
# B11: TP-2A6 (Fab, V domains shown)
# VH: QVQLVESGGGLVQPGGSLRLSCAASGFTFSRYAMSWVRQAPGKGLEWVSSIISSSSETYYADSVKGRFTISRDNSKNTLYLQMNSLRAEDTAVYYCARLMGYGHYYPFDYWGQGTLVTVSS
# VL: DIELTQPPSVSVAPGQTARISCSGDKIGSKYVYWYQQKPGQAPVLVIYDSNRPSGIPERFSGSNSGNTATLTISGTQAEDEADYYCASYDSIYSYWVFGGGTKLTVLG
# notes: as for B1
# B12: TP-3E1 (Fab, V domains shown)
# VH: QVQLVESGGGLVQPGGSLRLSCAASGFTFSNYAMTWVRQAPGKGLEWVSVISSVGSNTYYADSVKGRFTISRDNSKNTLYLQMNSLRAEDTAVYYCARPTKAGRTWWWGPYMDVWGQGTLVTVSS
# VL: DIELTQPPSVSVAPGQTARISCSGDNIGSYYAYWYQQKPGQAPVLVIYDDSNRPSGIPERFSGSNSGNTATLTISGTQAEDEADYYCQSYDSTGLLVFGGGTKLTVLG
# notes: as for B1
# B13: TP-4A7 (Fab, V domains shown)
# VH: QVQLVESGGGLVQPGGSLRLSCAASGFTFRNYAMNWVRQAPGKGLEWVSVISGSSSYTYYADSVKGRFTISRDNSKNTLYLQMNSLRAEDTAVYYCARADLPYMVFDYWGQGTLVTVSS
# VL: B12 VL with N26A, I27L, Y30K, Y31F, Y33H, N52E, S89A, T93G, G94L, L96Y
# notes: as for B1
# B14: TP-3G1 (Fab, V domains shown)
# VH: QVQLQQSGPGLVKPSQTLSLTCAISGDSVSSNSGGWGWIRQSPGRGLEWLGLIYYRSKWYNAYAVSVKSRITINPDTSKNQFSLQLNSVTPEDTAVYYCARYLGSNFYVYSDVWGQGTLVTVSS
# VL: DIQMTQSPSSLSASVGDRVTITCRASQGISSYLHWYQQKPGKAPKLLIYGASTLQSGVPSRFSGSGSGTDFTLTISSLQPEDFATYYCQQQNGYPFTFGQGTKVEIKR
# notes: as for B1
# B15: TP-3C1 (Fab, V domains shown)
# VH: QVQLVESGGGLVQPGGSLRLSCAASGFTFSSYSMHWVRQAPGKGLEWVSGISYSSSFTYYADSVKGRFTISRDNSKNTLYLQMNSLRAEDTAVYYCARALGGGVDYWGQGTLVTVSS
# VL: DIALTQPASVSGSPGQSITISCTGTSSDLGGFNTVSWYQQHPGKAPKLMIYSVSSRPSGVSNRFSGSKSGNTASLTISGLQAEDEADYYCQSYDLNNLVFGGGTKLTVLG
# notes: Human Fab (HuCal Gold), made in E. coli TG1; VL is the same entry as TP-2G9, VH the same entry as TP-3F2 (so in the source)
# B16: TP-3F2 (Fab, V domains shown)
# VH: B15 VH
# VL: DIELTQPPSVSVAPGQTARISCSGDNLPSKSVYWYQQKPGQAPVLVIYGDNNRPSGIPERFSGSNSGNTATLTISGTQAEDEADYYCQSWTSRPMVVFGGGTKLTVLG
# notes: as for B1
# B17: TP-2A8 (Fab, V domains shown)
# VH: QVQLVESGGGLVQPGGSLRLSCAASGFTFRSYGMSWVRQAPGKGLEWVSSIRGSSSSTYYADSVKGRFTISRDNSKNTLYLQMNSLRAEDTAVYYCARKYRYWFDYWGQGTLVTVSS
# VL: DIELTQPPSVSVAPGQTARISCSGDNLRNYYAHWYQQKPGQAPVVVIYYDNNRPSGIPERFSGSNSGNTATLTISGTQAEDEADYYCQSWDDGVPVFGGGTKLTVLG
# notes: Human Fab (HuCal Gold), made in E. coli TG1; also called Fab-2A8; TP-2A8-Fab
# B18: TP-3H2 (Fab, V domains shown)
# VH: QVQLVESGGGLVQPGGSLRLSCAASGFTFNSYYMSWVRQAPGKGLEWVSNISSSGSNTNYADSVKGRFTISRDNSKNTLYLQMNSLRAEDTAVYYCARVHYGFDFWGQGTLVTVSS
# VL: DIELTQPPSVSVAPGQTARISCSGDKLGKYYAYWYQQKPGQAPVLVIYGDSKRPSGIPERFSGSNSGNTATLTISGTQAEDEADYYCSSAAFGSTVFGGGTKLTVLG
# notes: as for B1
# B19: TP-2A10 (Fab, V domains shown)
# VH: QVQLVESGGGLVQPGGSLRLSCAASGFTFTSYSMNWVRQAPGKGLEWVSAISYTGSNTHYADSVKGRFTISRDNSKNTLYLQMNSLRAEDTAVYYCARAFLGYKESYFDIWGQGTLVTVSS
# VL: DIELTQPPSVSVAPGQTARISCSGDKLGKKYVHWYQQKPGQAPVLVIYGDDKRPSGIPERFSGSNSGNTATLTISGTQAEDEADYYCQAWGSISRFVFGGGTKLTVLG
# notes: as for B1
# B20: TP-2B4 (Fab, V domains shown)
# VH: QVQLVESGGGLVQPGGSLRLSCAASGFTFSNYSMTWVRQAPGKGLEWVSGISYNGSNTYYADSVKGRFTISRDNSKNTLYLQMNSLRAEDTAVYYCARIYYMNLLAGWGQGTLVTVSS
# VL: DIELTQPPSVSVAPGQTARISCSGDALGTYYAYWYQQKPGQAPVLVIYGDMNRPSGIPERFSGSNSGNTATLTISGTQAEDEADYYCQSYDAGVKPAVFGGGTKLTVLG
# notes: as for B1
# Biological target: T1, ヒト組織因子経路インヒビター (human TFPI)
# Experiment: ELISA, Fab in bacterial lysate on human TFPI-coated plate
row,binding result,Binder
1,binds,B1
2,binds,B2
3,binds,B3
4,binds,B4
5,binds,B5
6,binds,B6
7,binds,B7
8,binds,B8
9,binds,B9
10,binds,B10
11,binds,B11
12,binds,B12
13,binds,B13
14,binds,B14
15,binds,B15
16,binds,B16
17,binds,B17
18,binds,B18
19,binds,B19
20,binds,B20
